B1: granulocyte macrophage colony stimulating factor (protein, UniProt P01587 18-141, looked up)
Granulocyte-macrophage …: APTRSPITVTRPWKHVEAIKEALNLLDDMPVTLNEEVEVVSNEFSFKKLTCVQTRLKIFEQGLRGNFTKLKGALNMTASYYQTYCPPTPETDCETQVTTYADFIDSLKTFLTDIPFECKKPGQK
notes: cytokine encapsulated in and released from PLG matrices to recruit DCs

Tests used:
[1] = test system: IL-12p70; test: Example 7: cytokine concentrations at implant site; type: in vivo, C57BL/6J mice; conditions: with GM-CSF
Description: To determine in vivo IL-12p70 concentration at the matrix implant site, adjacent tissue was excised and digested with tissue protein extraction reagent. After centrifugation, the concentrations of IL-12, in the supernatant were then analyzed with ELISA (R&D systems), according to the manufacturer's instructions.

[2] = test system: bone marrow derived dendritic cells; test: Example 8: transwell chemotaxis and chemokinesis of bone marrow derived DCs; type: cell-based, C57BL/6 mice; conditions: 12 h
Description: Primary bone-marrow-derived dendritic cells (BMDCs) were flushed from the femurs of C57BL/6 mice and cultured in 100-mm bacteriological petri dishes (Falcon number 1029/Becton Dickinson). Cell culture medium RPMI-1640 (R10) (Sigma) was supplemented with 1% Penicillin-Streptomycin (Invitrogen), 2 mM 1-Glutamine (Invitrogen), 50 μM 2-mercaptoethanol (Sigma) and 10% heat-inactivated fetal bovine serum (FBS, Invitrogen). At day 0, bone marrow leukocytes were seeded at 2×10^6 cells per 100-mm dish in 10 ml R10 medium containing 20 ng/nil granulocyte-macrophage colony-stimulating factor (GM-CSF) (Peprotech). At day 3, another 10 ml R10 medium containing 20 ng/mL GM-CSF was added. to the plates. At days 6 and 8, half of the culture supernatant was collected and centrifuged, the cell pellet was resuspended in 10 ml fresh R10 containing 20 ng/mL GM-CSF, and placed back into the original plate. The non-adherent cell population in the culture supernatant was used between days 8 and 12 for all the experiments.
Transwell migration studies were performed by plating bone marrow derived dendritic cells in the top well of 6.5 mm transwell dishes (Costar, Cambridge, Mass.) with a pore size of 5 μm. The chemotactic effects of GM-CSF, FL (Flt3), and CCL20 on the migration of BMDCs was assessed by placing 500 ng/ml of recombinant murine GM-CSF, FL or CCL20 (Peprotech, Rocky Hill, N.J.) in the bottom wells and 3×10^5 DCs in the top wells. For chemokinesis studies, the concentration of cytokine in each compartment was equal at 500 ng/ml and 3×10^5 DCs were added to the top wells. The number of cells that migrated from the top well to the bottom well through the porous membrane was counted at the end of 12 h to quantify migration. Cells that had migrated to the bottom well were collected by treatment with 0.25% trypsin-0.03% ethylenediaminetetraacetic acid (EDTA, Invitrogen) and counted with a Z2 coulter counter (Beckman Coulter, Inc).

Row | Molecule | effect on IFN-α concentration at vaccine site [1] | DC chemotaxis, migration higher than control condition ([2]; 500 ng/ml in bottom wells) | DC chemokinesis, increase in number of migrated cells ([2]; homogenous cytokine 500 ng/ml) [%]
1 | CpG-ODN 1826 | elevated levels | – | –
2 | B1 | – | approximately 50% | 50

— US10568949B2, “Method of eliciting an anti-tumor immune response with controlled delivery of TLR agonists in porous polymerlc devices” (President and Fellows of Harvard College, priority 2008, dated 2020)
